Assay results from US20200330588A1 (ICAHN SCHOOL OF MEDICINE AT MOUNT SINAI, published 2020).

Legend:
[1] = molecular target: T1, HCMV glycoprotein gH, strain TB40/E (U373^gH cells, TB40/E-infected cells, virions) (Human cytomegalovirus strain TB40/E); assay: cell-based or functional assay
[2] = molecular target: T1, HCMV glycoprotein gH, strain TB40/E …; assay: cell-based or functional assay; remark: listed apart in the source
[3] = molecular target: HCMV glycoprotein gH, strain TR (virions) (Human cytomegalovirus strain TR); assay: cell-based or functional assay
[4] = molecular target: HCMV glycoprotein gH, strain VHL/E (virions) (Human cytomegalovirus strain VHL/E); assay: cell-based or functional assay
[5] = molecular target: HCMV glycoprotein gH, strain DAVIS (virions) (Human cytomegalovirus strain DAVIS); assay: cell-based or functional assay
[6] = molecular target: HCMV glycoprotein gH, strain AD169 (AD169IE2-YFP-infected MRC5 cells and virions) (Human cytomegalovirus strain AD169, UniProt P12824 24-743); assay: cell-based or functional assay
[7] = molecular target: T2, gH mutant 480-486 (consecutive alanine substitutions) transfected into HEK293 cells with gL (Human cytomegalovirus (consensus …)); assay: flow cytometry, HEK293 cells transfected with gH alanine mutant and gL; % of gH-positive cells compared to WT
T2 construct: whole, on cells; also called 480-486 mutant; gH mutant 480-86

[8] = molecular target: T3, gH mutant 485-492 (consecutive alanine substitutions) transfected into HEK293 cells with gL (Human cytomegalovirus (consensus …)); assay: as above
T3 construct: whole, on cells; also called 485-492 mutant; gH mutant 485-92

[9] = molecular target: T4, gH alanine mutant 480-481 transfected into HEK293 cells with gL (Human cytomegalovirus (consensus …)); assay: as above
T4 construct: whole, on cells

[10] = molecular target: T5, gH alanine mutant 482-483 transfected into HEK293 cells with gL (Human cytomegalovirus (consensus …)); assay: as above
T5 construct: whole, on cells

[11] = molecular target: T6, gH alanine mutant 484-485 transfected into HEK293 cells with gL (Human cytomegalovirus (consensus …)); assay: as above
T6 construct: whole, on cells

[12] = molecular target: T7, gH alanine mutant 486-487 transfected into HEK293 cells with gL (Human cytomegalovirus (consensus …)); assay: as above
T7 construct: whole, on cells

[13] = molecular target: T8, gH alanine mutant 488-489 transfected into HEK293 cells with gL (Human cytomegalovirus (consensus …)); assay: as above
T8 construct: whole, on cells

[14] = molecular target: T9, gH alanine mutant 490-491 transfected into HEK293 cells with gL (Human cytomegalovirus (consensus …)); assay: as above
T9 construct: whole, on cells

[15] = molecular target: gH alanine mutant 478-488 (label as in Table 6); assay: as above
[16] = molecular target: T10, cyclic gH peptides (7, 10 and 13 aa libraries) spanning gH residues 485-493 (Human cytomegalovirus, cyclized with a thioether linkage between the N' and C' termini); assay: cyclic peptide microarray (PEPperCHIP), anti-mouse DyLight680 detection
T10 construct: also called region spanning residues 485-493

B1: monoclonal antibody 10C10 (antibody, V domains shown)
VH: EVQLQQSGPELVKPGVSMRISCKASGFSFTDYTMNWVKQSHRKNLEWIGLVNPYNGGTSHNPNFKGKATLTVDKSSSTAYMELLSLTSEDSAVYYCARRGRRDYALDYWGQGTSVTVSS
VL: DIVLTQSPVTLSVTPGDSVSLSCRASQSVSNNLHWYQQKSHESPRLLIKYASQSISGIPSRFRGSGSGTDFTLSIISVETEDFGMYFCQQSNIWPHTFGAGTKLELKR
notes: also called mAb 10C10; 10C10^647 (Alexa Fluor 647 conjugate)
Q: How did the “IC50, neutralization of TB40/E FLAG-YFP infection of ARPE-19 epithelial cells (YFP read-out)” value [1] turn out when B1 was run?
A: The value was 0.13 µg/mL.

Q: And the “IC50, neutralization of TB40/E FLAG-YFP infection of fibroblasts (FLAG-YFP read-out)” value [2]?
A: The value was 0.38 µg/mL.

Q: And the “IC50, strain TB40/E, epithelial cells, α-IE staining” value [2]?
A: Its value is 1.35 µg/mL.

Q: What about the “IC50, strain TB40/E, fibroblasts, plaque assay” value [2] of the same binder?
A: Its value is 1.28 µg/mL.

Q: What about the “IC50, strain TB40/E, fibroblasts, α-IE staining” value [2] of the same binder?
A: The value was 4.18 µg/mL.

Q: And the “IC50, strain TR, epithelial cells, α-IE staining” value [3]?
A: The value was 0.44 µg/mL.

Q: What about the “IC50, strain TR, fibroblasts, plaque assay” value [3] of the same binder?
A: The value was 2.43 µg/mL.

Q: And the “IC50, strain TR, fibroblasts, α-IE staining” value [3]?
A: The value was 2.34 µg/mL.

Q: What about the “IC50, strain VHL/E, epithelial cells, α-IE staining” value [4] of the same binder?
A: Its value is 0.11 µg/mL.

Q: What about the “IC50, strain VHL/E, fibroblasts, plaque assay” value [4] of the same binder?
A: The value was 0.24 µg/mL.

Q: What about the “IC50, strain VHL/E, fibroblasts, α-IE staining” value [4] of the same binder?
A: The value was 0.24 µg/mL.

Q: What about the “IC50, strain Davis, fibroblasts, plaque assay” value [5] of the same binder?
A: Its value is 0.37 µg/mL.

Q: And the “IC50, neutralization of AD169IE2-YFP infection of fibroblasts (IE2-YFP read-out)” value [6]?
A: Its value is 0.5 µg/mL.

Q: What about the “Avg. binding (% of mass)” value [7] of the same binder?
A: The value was 3%.

Q: And the “Avg. binding (% of mass)” value [8]?
A: The value was 2%.

Q: What about the “Avg. binding (% of mass)” value [9] of the same binder?
A: The value was 70%.

Q: What about the “Avg. binding (% of mass)” value [10] of the same binder?
A: Its value is 91%.

Q: And the “Avg. binding (% of mass)” value [11]?
A: Its value is 3%.

Q: And the “Avg. binding (% of mass)” value [12]?
A: Its value is 2%.

Q: And the “Avg. binding (% of mass)” value [13]?
A: The value was 98%.

Q: What about the “Avg. binding (% of mass)” value [14] of the same binder?
A: The value was 72%.

Q: What about the “Avg. binding (% of mass)” value [15] of the same binder?
A: The value was 100%.

B2: monoclonal antibody 5C3 (antibody, V domains shown)
VH: QVQLQQPGAELVRPGASVKLSCKASGYTFTTYWMNWVKQRPGQGLEWIGMIDPSDSETHYNQMFKDKATLTVDTSSSTAYMQLSSLTSEDSAVYYCARGRSWFVYWGQGTLVTVSS
VL: DIVLTQSPASLAVSLGQRATISCRASKSVSSSGYSYVHWYQQKPGQPPKLLIYLASNLESGVPARFSGSGSGTDFTLNIHSVEEEDAATYYCQHNRELPYTFGGGTKLEIKR
notes: also called mAb 5C3; 5C3^647 (Alexa Fluor 647 conjugate)
Q: What does the source list for B2?
A: IC50, neutralization of TB40/E FLAG-YFP infection of ARPE-19 epithelial cells (YFP read-out) [1]: 0.04 µg/mL; IC50, neutralization of TB40/E FLAG-YFP infection of fibroblasts (FLAG-YFP read-out) [2]: 0.07 µg/mL; IC50, strain TB40/E, epithelial cells, α-IE staining [2]: 0.96 µg/mL; IC50, strain TB40/E, fibroblasts, plaque assay [2]: 0.45 µg/mL; IC50, strain TB40/E, fibroblasts, α-IE staining [2]: 0.88 µg/mL; IC50, strain TR, epithelial cells, α-IE staining [3]: 0.16 µg/mL; IC50, strain TR, fibroblasts, plaque assay [3]: 2.13 µg/mL; IC50, strain TR, fibroblasts, α-IE staining [3]: 0.63 µg/mL; IC50, strain VHL/E, epithelial cells, α-IE staining [4]: 0.11 µg/mL; IC50, strain VHL/E, fibroblasts, plaque assay [4]: 0.02 µg/mL; IC50, strain VHL/E, fibroblasts, α-IE staining [4]: 0.02 µg/mL; IC50, strain Davis, fibroblasts, plaque assay [5]: 0.22 µg/mL; IC50, neutralization of AD169IE2-YFP infection of fibroblasts (IE2-YFP read-out) [6]: 0.24 µg/mL; fold over background [16]: ~3 fold; Avg. binding (% of mass) [7]: 14%; Avg. binding (% of mass) [8]: 49%; Avg. binding (% of mass) [9]: 72%; Avg. binding (% of mass) [10]: 85%; Avg. binding (% of mass) [11]: 76%; Avg. binding (% of mass) [12]: 56%; Avg. binding (% of mass) [13]: 113%; Avg. binding (% of mass) [14]: 92%; Avg. binding (% of mass) [15]: 100%
